The values below come from the supplement of paper PMC7125110.

± gives the standard error. Fewer inactive variants are shown than the library holds. Bounds are passed on as bounds.

To fix the notation:
B1: glmS ribozyme (parent)
chain: AUAAAAGCGCCAGAACUACAGAAAUGUAGUUGACGAGGAGGAGGUUUAUCGAAUUUUCGGCGGAUGCCUCCAAA

Settings in all cases: with glucosamine-6-phosphate
Variants of B1 are the subject of data set [1]. The data set is described as follows: self-cleavage kobs at 160 uM GlcN6P; higher = faster cleavage; RNA array. In a few lines:
(§1)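 Over ~14 h at 37 °C, tiles were imaged as glucosamine-6-phosphate (40 μM to 10 mM) in HEPES/KCl/Mg(OAc)2 buffer flowed across sequenced MiSeq chips. The chips carried barcoded ribozyme variants transcribed in situ by E. coli RNA polymerase and tracked with a hybridised Cy3 probe. After normalisation to baseline and to non-cleaving reference variants, one- or two-exponential decay fits of per-tile medians gave kobs. kcat and KM followed from weighted Michaelis–Menten fits across concentrations.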

The variants in data set [2] derive from B1. Put plainly: self-cleavage kobs at 2500 uM GlcN6P; higher = faster cleavage; RNA array. In a few lines: as §1
In data set [3] the parent is B1. The data set is described as follows: self-cleavage kobs at 10000 uM GlcN6P; higher = faster cleavage; RNA array. Summed up:
as §1

In data set [4] the parent is B1. Put plainly: self-cleavage kobs at 40 uM GlcN6P; higher = faster cleavage; RNA array. Summed up: as §1
Data set [5] covers variants of B1. The data set is described as follows: self-cleavage kobs at 640 uM GlcN6P; higher = faster cleavage; RNA array. Summed up: as §1

As to A15G G51U G59A, in the data set with glucosamine-6-phosphate [1], the “self-cleavage kobs at 160 uM GlcN6P” value was < 1e-05 s⁻¹. Moreover, the “self-cleavage kobs at 2500 uM GlcN6P” value with glucosamine-6-phosphate [2] is < 1e-05 s⁻¹. Moreover, in the data set with glucosamine-6-phosphate [3], the “self-cleavage kobs at 10000 uM GlcN6P” value was < 1e-05 s⁻¹.

A6G U31A G32U: in the data set with glucosamine-6-phosphate [4], the “self-cleavage kobs at 40 uM GlcN6P” value was < 1e-05 s⁻¹. In the data set with glucosamine-6-phosphate [1], the “self-cleavage kobs at 160 uM GlcN6P” value is < 1e-05 s⁻¹. Further, in the data set with glucosamine-6-phosphate [5], the “self-cleavage kobs at 640 uM GlcN6P” value was < 1e-05 s⁻¹. Besides, the “self-cleavage kobs at 2500 uM GlcN6P” value with glucosamine-6-phosphate [2] is < 1e-05 s⁻¹. Besides, the “self-cleavage kobs at 10000 uM GlcN6P” value in the data set with glucosamine-6-phosphate [3] is < 1e-05 s⁻¹.

Consider A6C U31G G32A G41U, for which, in the data set with glucosamine-6-phosphate [4], the “self-cleavage kobs at 40 uM GlcN6P” value was < 1e-05 s⁻¹.

Consider G29A U31G C50U C68A, for which the “self-cleavage kobs at 160 uM GlcN6P” value with glucosamine-6-phosphate [1] was determined as 5.27e-05 ± 2.2e-05 s⁻¹. Besides, the “self-cleavage kobs at 640 uM GlcN6P” value with glucosamine-6-phosphate [5] was 7.43e-05 ± 2.9e-05 s⁻¹. The “self-cleavage kobs at 2500 uM GlcN6P” value with glucosamine-6-phosphate [2] was found to be 8.2e-05 ± 3.2e-05 s⁻¹.

As to G51A U57A, the “self-cleavage kobs at 40 uM GlcN6P” value in the data set with glucosamine-6-phosphate [4] is < 1e-05 s⁻¹. In addition, in the data set with glucosamine-6-phosphate [3], the “self-cleavage kobs at 10000 uM GlcN6P” value is < 1e-05 s⁻¹.

For U46C A52C, the “self-cleavage kobs at 40 uM GlcN6P” value with glucosamine-6-phosphate [4] is < 1e-05 s⁻¹. For the same variant, the “self-cleavage kobs at 160 uM GlcN6P” value with glucosamine-6-phosphate [1] is < 1e-05 s⁻¹.

As to A5U A6C A12G G32A G51U, the “self-cleavage kobs at 40 uM GlcN6P” value in the data set with glucosamine-6-phosphate [4] is < 1e-05 s⁻¹. For the same variant, the “self-cleavage kobs at 10000 uM GlcN6P” value in the data set with glucosamine-6-phosphate [3] was < 1e-05 s⁻¹.

As to C8A G44U, in the data set with glucosamine-6-phosphate [4], the “self-cleavage kobs at 40 uM GlcN6P” value was < 1e-05 s⁻¹. Also, the “self-cleavage kobs at 160 uM GlcN6P” value in the data set with glucosamine-6-phosphate [1] was < 1e-05 s⁻¹. Also, the “self-cleavage kobs at 640 uM GlcN6P” value with glucosamine-6-phosphate [5] was < 1e-05 s⁻¹. For the same variant, in the data set with glucosamine-6-phosphate [3], the “self-cleavage kobs at 10000 uM GlcN6P” value is < 1e-05 s⁻¹.

Regarding U56A C71U, the “self-cleavage kobs at 40 uM GlcN6P” value with glucosamine-6-phosphate [4] stood at 0.000282 ± 3.8e-05 s⁻¹. In addition, the “self-cleavage kobs at 160 uM GlcN6P” value in the data set with glucosamine-6-phosphate [1] came to 0.000738 ± 0.00012 s⁻¹. Further, in the data set with glucosamine-6-phosphate [5], the “self-cleavage kobs at 640 uM GlcN6P” value came to 0.00243 ± 0.00036 s⁻¹. The “self-cleavage kobs at 2500 uM GlcN6P” value with glucosamine-6-phosphate [2] is 0.0201 ± 0.0072 s⁻¹. Further, the “self-cleavage kobs at 10000 uM GlcN6P” value with glucosamine-6-phosphate [3] came out at 0.018 ± 0.0044 s⁻¹.

With C10A C16A G41U, in the data set with glucosamine-6-phosphate [4], the “self-cleavage kobs at 40 uM GlcN6P” value is < 1e-05 s⁻¹. Also, the “self-cleavage kobs at 10000 uM GlcN6P” value with glucosamine-6-phosphate [3] is < 1e-05 s⁻¹.

As to G38U C68A, the “self-cleavage kobs at 160 uM GlcN6P” value with glucosamine-6-phosphate [1] stood at 7.69e-05 ± 2.1e-05 s⁻¹. Moreover, the “self-cleavage kobs at 640 uM GlcN6P” value in the data set with glucosamine-6-phosphate [5] was 0.000459 ± 0.00019 s⁻¹. Further, the “self-cleavage kobs at 2500 uM GlcN6P” value with glucosamine-6-phosphate [2] was 0.000238 ± 9.6e-05 s⁻¹.

Turning to C8U G43U, the “self-cleavage kobs at 40 uM GlcN6P” value with glucosamine-6-phosphate [4] was < 1e-05 s⁻¹. For the same variant, the “self-cleavage kobs at 160 uM GlcN6P” value with glucosamine-6-phosphate [1] is < 1e-05 s⁻¹. In addition, in the data set with glucosamine-6-phosphate [2], the “self-cleavage kobs at 2500 uM GlcN6P” value was < 1e-05 s⁻¹. For the same variant, the “self-cleavage kobs at 10000 uM GlcN6P” value in the data set with glucosamine-6-phosphate [3] was < 1e-05 s⁻¹.

On to C11A A15C G43A, for which the “self-cleavage kobs at 40 uM GlcN6P” value with glucosamine-6-phosphate [4] is < 1e-05 s⁻¹. For the same variant, the “self-cleavage kobs at 10000 uM GlcN6P” value in the data set with glucosamine-6-phosphate [3] was < 1e-05 s⁻¹.

In the case of G7C C16A U47C A53U, the “self-cleavage kobs at 40 uM GlcN6P” value in the data set with glucosamine-6-phosphate [4] is < 1e-05 s⁻¹. In addition, the “self-cleavage kobs at 10000 uM GlcN6P” value with glucosamine-6-phosphate [3] was < 1e-05 s⁻¹.

For the variant A6C A15U A33U U69G, the “self-cleavage kobs at 40 uM GlcN6P” value with glucosamine-6-phosphate [4] is < 1e-05 s⁻¹.

Consider A42C A48C, for which the “self-cleavage kobs at 40 uM GlcN6P” value with glucosamine-6-phosphate [4] was < 1e-05 s⁻¹. The “self-cleavage kobs at 640 uM GlcN6P” value with glucosamine-6-phosphate [5] was < 1e-05 s⁻¹. Also, the “self-cleavage kobs at 2500 uM GlcN6P” value in the data set with glucosamine-6-phosphate [2] is < 1e-05 s⁻¹. In addition, the “self-cleavage kobs at 10000 uM GlcN6P” value with glucosamine-6-phosphate [3] is < 1e-05 s⁻¹.

Take A6G A14U U65G: the “self-cleavage kobs at 40 uM GlcN6P” value in the data set with glucosamine-6-phosphate [4] is < 1e-05 s⁻¹.

Regarding A48C C61G, the “self-cleavage kobs at 160 uM GlcN6P” value in the data set with glucosamine-6-phosphate [1] was < 1e-05 s⁻¹. Moreover, the “self-cleavage kobs at 640 uM GlcN6P” value with glucosamine-6-phosphate [5] is < 1e-05 s⁻¹. Further, in the data set with glucosamine-6-phosphate [2], the “self-cleavage kobs at 2500 uM GlcN6P” value is < 1e-05 s⁻¹. For the same variant, in the data set with glucosamine-6-phosphate [3], the “self-cleavage kobs at 10000 uM GlcN6P” value is < 1e-05 s⁻¹.

A6C G35U A36G G63U: the “self-cleavage kobs at 40 uM GlcN6P” value with glucosamine-6-phosphate [4] was < 1e-05 s⁻¹.

Turning to A52C U55C, the “self-cleavage kobs at 40 uM GlcN6P” value with glucosamine-6-phosphate [4] was < 1e-05 s⁻¹. For the same variant, the “self-cleavage kobs at 160 uM GlcN6P” value in the data set with glucosamine-6-phosphate [1] was < 1e-05 s⁻¹.

In the case of C16A C71U, the “self-cleavage kobs at 40 uM GlcN6P” value in the data set with glucosamine-6-phosphate [4] was 5.08e-05 ± 8.3e-06 s⁻¹. Also, the “self-cleavage kobs at 160 uM GlcN6P” value with glucosamine-6-phosphate [1] amounted to 0.000159 ± 3.6e-05 s⁻¹. For the same variant, the “self-cleavage kobs at 640 uM GlcN6P” value with glucosamine-6-phosphate [5] is 0.000293 ± 3.5e-05 s⁻¹. In addition, the “self-cleavage kobs at 2500 uM GlcN6P” value with glucosamine-6-phosphate [2] turned out to be 0.000355 ± 5.3e-05 s⁻¹. Besides, the “self-cleavage kobs at 10000 uM GlcN6P” value in the data set with glucosamine-6-phosphate [3] worked out at 0.00133 ± 0.00014 s⁻¹.

Consider C10U G60C, for which the “self-cleavage kobs at 40 uM GlcN6P” value in the data set with glucosamine-6-phosphate [4] is < 1e-05 s⁻¹. In addition, in the data set with glucosamine-6-phosphate [1], the “self-cleavage kobs at 160 uM GlcN6P” value was < 1e-05 s⁻¹. Besides, the “self-cleavage kobs at 640 uM GlcN6P” value with glucosamine-6-phosphate [5] is < 1e-05 s⁻¹. Besides, the “self-cleavage kobs at 2500 uM GlcN6P” value with glucosamine-6-phosphate [2] was < 1e-05 s⁻¹. In addition, in the data set with glucosamine-6-phosphate [3], the “self-cleavage kobs at 10000 uM GlcN6P” value was < 1e-05 s⁻¹.

Turning to G7A C8A A42C U69A, the “self-cleavage kobs at 40 uM GlcN6P” value with glucosamine-6-phosphate [4] was < 1e-05 s⁻¹. For the same variant, the “self-cleavage kobs at 10000 uM GlcN6P” value with glucosamine-6-phosphate [3] is < 1e-05 s⁻¹.
